Five molecules from paper doi:10.1101/2021.12.01.470705 (bioRxiv, 2021) can be followed below.

Assay [1] addresses WWOX tandem WW1-WW2 domains (amino acid 16-91) (human) (UniProt Q9NZC7). Put plainly: NMR titration.
The target is the same in assay [2]. Put plainly: ITC. (In general: In ITC the heat of successive injections is recorded.)
For assay [3], the target named is T1, WWOX WW2 domain (amino acid 57-91) (human, UniProt Q9NZC7 57-91).
T1 chain (looked up): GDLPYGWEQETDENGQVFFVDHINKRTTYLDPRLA
Put plainly: ITC.

Assay [4] deals with T2, WWOX tandem WW1-WW2 domains (amino acid 16-91) (human, UniProt Q9NZC7 16-91).
T2 sequence (looked up): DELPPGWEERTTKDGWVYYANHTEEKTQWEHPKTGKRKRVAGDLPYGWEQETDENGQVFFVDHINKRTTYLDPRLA
Description: ITC.

Assay [5] deals with T3, WWOX WW1 domain (amino acid 16-50) (human, UniProt Q9NZC7 16-50).
T3 chain (looked up): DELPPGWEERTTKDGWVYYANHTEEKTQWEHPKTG
Description: ITC.

The Kd is the constant that tells how readily two partners part at equilibrium. Higher therefore signals lower affinity.

Turning to “ErbB4 double-motif peptide PY1PY2 (natural linker)”, the apparent KD, WW2 site in assay [1] came to 1000 µM. The molecule further had a dissociation constant Kd in assay [2] of 14 µM.

Molecule ErbB4 single-motif peptide PY1 came in with an equilibrium dissociation constant (Kd) in assay [2] above 100 µM.

With ErbB4 single-motif peptide PY2, the Kd in assay [2] was above 100 µM.

For the molecule “PY3AY3, PY3PY3 peptide with PP-to-AA mutations in the C-terminal motif”, the Kd in assay [2] came to 27 µM. That is a double-digit micromolar value.

Turning to KPGTVLPPPPYRHRN (peptide, UniProt Q15303 1291-1305, looked up) [ErbB4 1291-1305 (PY3) single-motif peptide], the results for the Kd in assay [3], in assay [4] and in assay [5] were above 200 µM, 30 µM and 78 µM, respectively.
